Results on four proteins are retold here after paper PMC7430982 (Proceedings of the National Academy of Sciences of the …, 2020).

Residue numbers refer to the chain shown, from its start. In names and notes the source's numbering stands.

Data set [1] concerns the molecule itself. Description: cross-linking.
Data set [2] deals with the molecule itself. Description: cryo-EM structure.
Data set [3] deals with the molecule itself. The experiment in a line: crystal structure.

B1: NaAtm1 A527C (natural protein)
chain: MPPETATNPKDARHDGWQTLKRFLPYLWPADNAVLRRRVVGAILMVLLGKATTLALPFAYKKAVDAMTLGGGAQPALTVALAFVLAYALGRFSGVLFDNLRNIVFERVGQDATRHLAENVFARLHKLSLRFHLARRTGEVTKVIERGTKSIDTMLYFLLFNIAPTVIELTAVIVIFWLNFGLGLVTATILAVIAYVWTTRTITEWRTHLREKMNRLDGQALARAVDSLLNYETVKYFGAESREEARYASAARAYADAAVKSENSLGLLNIAQALIVNLLMAGAMAWTVYGWSQGKLTVGDLVFVNTYLTQLFRPLDMLGMVYRTIRQGLIDMAEMFRLIDTHIEVADVPNAPALVVNRPSVTFDNVVFGYDRDREILHGLSFEVAAGSRVAIVGPSGAGKSTIARLLFRFYDPWEGRILIDGQDIAHVTQTSLRAALGIVPQDSVLFNDTIGYNIAYGRDGASRAEVDAAAKGAAIADFIARLPQGYDTEVGERGLKLSGGEKQRVAIARTLVKNPPILLFDEATSCLDTRTEQDILSTMRAVASHRTTISIAHRLSTIADSDTILVLDQGRLAEQGSHLDLLRRDGLYAEMWARQAAESAEVSEAAE
modifications: disulfide between the two equivalent C527 residues of the dimer (crosslinking yield ~70%)
On to B1, for which the crosslinking yield in data set [1] was about 70%.

B2: NaAtm1 (ABC transporter of mitochondria homolog from Novosphingobium aromaticivorans), wild type (natural protein)
chain: B1 chain with C527A
Regarding B2, the binding result in data set [2] is reported as “binds”.

B3: NaAtm1 E523Q (ATP-hydrolysis-deficient Walker-B mutant) (natural protein)
chain: B1 chain with E523Q, C527A
B3: the binding result in data set [3] is recorded as “binds”.

B4: NaAtm1 S526C (natural protein)
chain: B1 chain with S526C, C527A
modifications: disulfide between the two equivalent C526 residues of the dimer (crosslinking yield ~70%)
For B4, the crosslinking yield in data set [1] is about 70%.
